# Measured values: patent CN117999283A (INST BASIC SCIENCE; KOREA ADVANCED INST SCI & TECH, dated 2024)
# B1: 人Tie2 ECD (人Tie2的第23-735位残基) (receptor, human, UniProt Q02763 23-735, looked up)
# chain: AMDLILINSLPLVSDAETSLTCIASGWRPHEPITIGRDFEALMNQHQDPLEVTQDVTREWAKKVVWKREKASKINGAYFCEGRVRGEAIRIRTMKMRQQASFLPATLTMTVDKGDNVNISFKKVLIKEEDAVIYKNGSFIHSVPRHEVPDILEVHLPHAQPQDAGVYSARYIGGNLFTSAFTRLIVRRCEAQKWGPECNHLCTACMNNGVCHEDTGECICPPGFMGRTCEKACELHTFGRTCKERCSGQEGCKSYVFCLPDPYGCSCATGWKGLQCNEACHPGFYGPDCKLRCSCNNGEMCDRFQGCLCSPGWQGLQCEREGIQRMTPKIVDLPDHIEVNSGKFNPICKASGWPLPTNEEMTLVKPDGTVLHPKDFNHTDHFSVAIFTIHRILPPDSGVWVCSVNTVAGMVEKPFNISVKVLPKPLNAPNVIDTGHNFAVINISSEPYFGDGPIKSKKLLYKPVNHYEAWQHIQVTNEIVTLNYLEPRTEYELCVQLVRRGEGGEGHPGPVRRFTTASIGLPPPRGLNLLPKSQTTLNLTWQPIFPSSEDDFYVEVERRSVQKSDQQNIKVPGNLTSVLLNNLHPREQYVVRARVNTKAQGEWSEDLTAWTLSDILPPQPENIKISNITHSSAVISWTILDGYSISSITIRYKVQGKNEDQHVDVKIKNATITQYQLKGLEPETAYQVDIFAENNIGSSNPAFSHELVTLPES
# notes: range 23-735; The construct is defined on GenBank AAH35514.2; Tags are not described; also called hTie2 ECD
# B2: hTAAB (hTie2活化小鼠单克隆抗体, 小鼠IgG1) (antibody, V domains shown)
# VH: QVQLQQPGAELVRPGASVKLSCKASGYSFTSYWMNWVKQRPGQGLEWIGMIHPSDSETRLNQKFMDKATLTVDKSSSTAYMQLSSPTSEDSAVYYCARGLYGNSWGQGTLVTVSA
# VL: DIQMTQSPSSLSASLGERVSLTCRASQDIGISLNWLQQEPDGTIKRLIYATSSLDSGVPKRFSGSRSGSDYSLTISSLESEDFVDYYCLQYASSPYTFGGGTKLEIK
# notes: Mouse IgG1 from a hybridoma; also called 小鼠hTAAB; 亲本hTAAB
# Tests used:
# [1] = biological target: the molecule itself; experiment: SEC-MALS; self-association in solution
# [2] = biological target: B1; experiment: SPR (Biacore T200): hTie2 ECD amine-coupled on CM5, IgG as analyte at 0-64 nM, 1:1 model
Binder,binding result [1],Kd [2] [nM],koff [2] [s⁻¹],kon [2] [M⁻¹ s⁻¹]
B1,no binding (tested: 1mg/ml),,,
B2,,4.2,0.0006,140000
